{"source": "patent US20200369728A1", "about": "“PEPTIDOMIMETIC MACROCYCLES AND USES THEREOF” (Aileron Therapeutics, Inc., priority 2015, published 2020)", "key": {"MCF-7": {"system": "MCF-7", "test": "WST-1 / MTT cell proliferation assay, MCF-7 (single agents and combinations)", "format": "cell-based, human", "settings": "for IC50: Homo sapiens; for effect on MCF-7 cell proliferation: single agent, 5 days", "description": "All media were supplemented with 10% (v/v) fetal calf serum, 100 units penicillin and 100 μg/ml streptomycin at 37° C. and 5% CO2. Prior to dosing, MCF-7 cells were switched to serum free medium and grown at 37° C. overnight.\nOne day prior to assaying, cells were trypsinized, counted and seeded at pre-determined densities in 96-well plates as follows: MCF-7, 5000 cells/well/200 μl; MOLT-3, 30,000 cells/well/200 μl. […] The WST-1 variant of the MTT assay was used to measure cell viability according to the manufacturer's protocol. WST-1 is a cell-impermeable, sulfonated tetrazolium salt that can be used to examine cell viability without killing the cells.\nCombination index (CI) values were calculated using the CompuSyn software. The data were expressed as log(CI).\nCells were evaluated for viability by WST-1 assay or MTT assay 3-7 days after beginning the simultaneous treatments (FIGS. 25, 30 and 31).\nCells were evaluated for viability by WST-1 assay or MTT assay 3-7 days or 120 hrs after beginning treatment (FIGS. 24A and 35). […] Cells were evaluated for viability by WST-1 assay or MTT assay 3-7 days after beginning the simultaneous treatments (FIGS. 36 and 37)."}, "AML cell lines": {"system": "AML cell lines", "test": "Cellular proliferation in AML cells treated with Ara-C", "format": "cell-based", "settings": "Ara-C alone"}, "MV4-11": {"system": "MV4-11", "test": "WST-1 / MTT cell viability, MV4-11", "settings": "MV4-11, sequential treatment, 72 hrs", "description": "Initially, various MV4-11 cell numbers were plated and evaluated 3-7 days later to determine the optimal number of cells to be plated and treatment duration.\nCells were evaluated for viability by WST-1 assay or MTT assay 3-7 days after beginning treatment.\nA drug combination index plot was used to assess the synergistic, additive, or antagonistic properties of each combination treatment. […] Combination index (CI) values were calculated using the CompuSyn software. The data were expressed as log(CI)."}, "FIGURE 19": {"test": "FIGURE 19", "from_the_text": "Table printed on a drawing sheet, FIGURE 19\nFirst reader's note: The table is an inset in a plot of solubility against the number of amino acids C-terminal to the cross-link."}, "[1]": {"system": "MCF-7 breast cancer xenograft", "test": "MCF-7 breast cancer xenograft study, tumor growth inhibition", "settings": "30 mg/kg three times per week iv", "description": "This formulation was prepared once for the duration of the study.\nEach group was assigned to a different treatment regimen.\nDuring the dosing period the mice were weighed and tumors measured 1-2 times per week."}, "SJSA-1": {"system": "SJSA-1", "test": "Cell viability assay (MTT), SJSA-1"}, "[2]": {"test": "MCF-7 breast cancer xenograft study, body weight and deaths", "format": "in vivo, mice", "from_the_text": "A negative control stapled peptide."}, "MDMX (In-house, 40 kD) [3]": {"biological_target": "T1, MDMX (In-house, 40 kD) (UniProt O15151)", "T1 sequence (looked up)": "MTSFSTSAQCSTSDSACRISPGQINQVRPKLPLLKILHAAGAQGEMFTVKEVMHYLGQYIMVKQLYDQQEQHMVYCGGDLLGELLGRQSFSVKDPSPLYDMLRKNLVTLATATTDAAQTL", "test": "competitive fluorescence polarization, displacement of FAM-labeled linear peptide from MDMX; grade decoded by the scale of Table 4"}, "MDM2 (In-house, 41 kD) [4]": {"biological_target": "MDM2 (In-house, 41 kD) (UniProt Q00987)", "sequence (Q00987 1-125 limits assumed)": "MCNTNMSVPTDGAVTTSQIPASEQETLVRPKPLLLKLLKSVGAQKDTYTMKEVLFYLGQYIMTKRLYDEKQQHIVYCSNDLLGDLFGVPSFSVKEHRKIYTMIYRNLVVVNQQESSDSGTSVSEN", "test": "competitive fluorescence polarization, displacement of FAM-labeled linear peptide from MDM2; grade decoded by the scale of Table 4"}, "MDM2 (In-house, 41 kD) [5]": {"biological_target": "T2, MDM2 (In-house, 41 kD) (UniProt Q00987 1-125, limits assumed)", "T2 construct": "Construct limits and any tag are unknown; also called HDM2", "T2 sequence (Q00987 1-125 limits assumed)": "as above", "test": "competitive fluorescence polarization, displacement of FAM-labeled linear peptide from MDM2; grade decoded by the scale of Table 4"}, "MDMX (In-house, 40 kD) [6]": {"biological_target": "T3, MDMX (In-house, 40 kD) (UniProt O15151 1-120, limits assumed)", "T3 construct": "Construct limits and any tag are unknown; also called MDM4", "T3 sequence (looked up)": "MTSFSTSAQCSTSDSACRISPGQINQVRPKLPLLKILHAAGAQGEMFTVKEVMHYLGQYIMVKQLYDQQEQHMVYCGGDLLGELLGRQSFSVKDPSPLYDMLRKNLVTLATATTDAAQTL", "test": "competitive fluorescence polarization, displacement of FAM-labeled linear peptide from MDMX; grade decoded by the scale of Table 4"}, "MDMX (In-house, 40 kD) [7]": {"biological_target": "T4, MDMX (In-house, 40 kD) (UniProt O15151 1-120, limits assumed)", "T4 construct": "also called MDM4", "T4 sequence (looked up)": "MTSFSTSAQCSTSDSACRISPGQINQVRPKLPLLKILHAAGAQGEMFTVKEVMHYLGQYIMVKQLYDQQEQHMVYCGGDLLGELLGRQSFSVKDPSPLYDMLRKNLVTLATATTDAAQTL", "test": "competitive fluorescence polarization vs FAM-labeled linear peptide; column Ki (MDMX); grade means >1000 nM"}, "MDMX (In-house, 40 kD) [8]": {"biological_target": "T4, MDMX (In-house, 40 kD)", "test": "competitive fluorescence polarization vs FAM-labeled linear peptide; column IC50 (MDMX); grade means >1000 nM"}}, "note": "Bridge positions count the residues as written; N and C are the ends. Square brackets hold non-standard residues; d marks the D form. R8 = C=CCCCCCC[C@@](C)(N)C(=O)O; Cba = N[C@@H](CC1CCC1)C(=O)O; S5 = C=CCCC[C@](C)(N)C(=O)O", "data": [{"molecule": "C[C@]12CC[C@@H]3c4ccc(O)cc4C[C@@H](CCCCCCCCC[S+]([O-])CCCC(F)(F)C(F)(F)F)[C@H]3[C@@H]1CC[C@@H]2O", "note": "(stereo partly shown) [fulvestrant, reference compound]", "values": [{"measurement": "IC50", "setting": "MCF-7; MCF7, FUL + 0.4 μM Aileron peptide 1, MCF-7", "result": 0.261, "unit": "nM"}, {"measurement": "IC50", "setting": "MCF-7; MCF7, FUL alone, MCF-7", "result": 0.768, "unit": "nM"}, {"measurement": "effect on MCF-7 cell proliferation", "setting": "MCF-7", "result": "inhibited MCF-7 breast cancer cell proliferation with limited cell killing as a single agent"}]}, {"molecule": "Nc1ccn([C@@H]2O[C@H](CO)[C@@H](O)[C@@H]2O)c(=O)n1", "note": "[Ara-C, cytarabine, reference compound]", "values": [{"measurement": "proliferation of AML cell lines", "setting": "AML cell lines", "result": "inhibits proliferation of AML cell lines"}, {"measurement": "order of addition: effect on cell growth, AP1 and Ara-C", "setting": "MV4-11", "result": "suppressed MV4-11 cell growth with or without AP1"}]}, {"molecule": "CO[C@H]1C[C@@H]2CC[C@@H](C)[C@@](O)(O2)C(=O)C(=O)N2CCCC[C@H]2C(=O)O[C@H]([C@H](C)C[C@@H]2CC[C@@H](OCCO)[C@H](OC)C2)CC(=O)[C@H](C)/C=C(\\C)[C@@H](O)[C@@H](OC)C(=O)[C@H](C)C[C@H](C)/C=C/C=C/C=C/1C", "note": "[everolimus, reference compound]", "values": [{"measurement": "effect on MCF-7 cell proliferation", "setting": "MCF-7", "result": "inhibited MCF-7 breast cancer cell proliferation with limited cell killing as a single agent"}]}, {"molecule": "CC(=O)N[C@@H](CC(C)C)C(=O)N[C@H](C(=O)N[C@@H](Cc1ccccc1)C(=O)N[C@]1(C)CCCCCCC=CCCC[C@@](C)(C(=O)N[C@@H](C)C(=O)N[C@@H](C)C(=O)N[C@@H](C)C(=O)N[C@@H](C)C(=O)N[C@@H](C)C(=O)N[C@@H](C)C(=O)N[C@H](C)C(N)=O)NC(=O)[C@H](CC(C)C)NC(=O)[C@H](CCC(N)=O)NC(=O)[C@H](C)NC(=O)[C@H](Cc2c[nH]c3ccccc23)NC(=O)[C@H](Cc2ccc(O)cc2)NC(=O)[C@H](C)NC1=O)[C@@H](C)O", "note": "[SP316]", "values": [{"measurement": "Solubility", "setting": "FIGURE 19", "result": 5000, "unit": "µg/mL"}]}, {"molecule": "CC(=O)N[C@@H](CC(C)C)C(=O)N[C@H](C(=O)N[C@@H](C)C(=O)N[C@]1(C)CCCCCCC=CCCC[C@@](C)(C(=O)N[C@@H](CO)C(=O)N[C@@H](C)C(=O)N[C@@H](C)C(N)=O)NC(=O)[C@H](CC2CCC2)NC(=O)[C@H](CCC(N)=O)NC(=O)[C@H](C)NC(=O)[C@H](Cc2c[nH]c3ccccc23)NC(=O)[C@H](Cc2ccc(O)cc2)NC(=O)[C@H](CCC(=O)O)NC1=O)[C@@H](C)O", "note": "[SP252]", "values": [{"measurement": "TGI by Day 32", "setting": "[1]", "result": 88, "unit": "%"}, {"measurement": "activity in the SJSA-1 in vitro viability assay", "setting": "SJSA-1", "result": "no activity"}, {"measurement": "% BW Change", "setting": "[2]; 30 mg/kg 3x/wk iv, Days 18-39", "result": "+3.3%"}, {"measurement": "No. with ≥10% BW Loss", "setting": "[2]; 30 mg/kg 3x/wk iv, Days 18-39", "result": "0/10"}, {"measurement": "No. with ≥20% BW Loss or death", "setting": "[2]; 30 mg/kg 3x/wk iv, Days 18-39", "result": "0/10"}, {"measurement": "tolerability of dosing regimen", "setting": "[2]; 30 mg/kg three times per week iv", "result": "well-tolerated with no body weight loss or deaths noted"}]}, {"molecule": "LTFAEYWAQLAAAAAAA (not fully specified; N-terminal acetyl; $r8 at 4 crosslinked by all-carbon olefin staple to $ at 11; pY at 6 (abbreviation not defined in the filing); D-Ala (a) at C-terminus; C-terminal amide)", "note": "[SP615, Ac-LTF$r8EpYWAQL$AAAAAa-NH2]", "values": [{"measurement": "Ki", "setting": "MDMX (In-house, 40 kD) [3]", "result": "< 10", "unit": "nM"}, {"measurement": "Ki", "setting": "MDM2 (In-house, 41 kD) [4]", "result": "< 10", "unit": "nM"}]}, {"molecule": "LTFAEYWAQLAAAAAAA (not fully specified; N-terminal acetyl; $r8 at 4 crosslinked by all-carbon olefin staple to $ at 11; Gla at 5 (abbreviation not defined in the filing); D-Ala (a) at C-terminus; C-terminal amide, stapled peptidomimetic macrocycle)", "note": "[SP602, Ac-LTF$r8GlaYWAQL$AAAAAa-NH2]", "values": [{"measurement": "Ki", "setting": "MDM2 (In-house, 41 kD) [5]", "result": "≤ 10", "unit": "nM"}, {"measurement": "Ki", "setting": "MDMX (In-house, 40 kD) [6]", "result": "≤ 10", "unit": "nM"}]}, {"molecule": "LTFAQYWAQLAAAAAAA (not fully specified; N-terminal acetyl; $r8 (alpha-Me R8-octenyl-alanine) at 4 crosslinked by all-carbon olefin staple to $ (alpha-Me S5-pentenyl-alanine) at 11; D-Ala (a) at C-terminus; C-terminal amide, stapled peptidomimetic macrocycle)", "note": "[SP600, Ac-LTF$r8QYWAQL$AAAAAa-NH2]", "values": [{"measurement": "Ki", "setting": "MDM2 (In-house, 41 kD) [5]", "result": "≤ 10", "unit": "nM"}, {"measurement": "Ki", "setting": "MDMX (In-house, 40 kD) [6]", "result": "≤ 10", "unit": "nM"}]}, {"molecule": "LTFAFYWAQLAAAAAAA (not fully specified; N-terminal acetyl; $r8 at 4 crosslinked by all-carbon olefin staple to $ at 11; F4g at 5 (abbreviation not defined in the filing); D-Ala (a) at C-terminus; C-terminal amide, stapled peptidomimetic macrocycle)", "note": "[SP603, Ac-LTF$r8F4gYWAQL$AAAAAa-NH2]", "values": [{"measurement": "Ki", "setting": "MDM2 (In-house, 41 kD) [5]", "result": "≤ 10", "unit": "nM"}, {"measurement": "Ki", "setting": "MDMX (In-house, 40 kD) [6]", "result": "≤ 10", "unit": "nM"}]}, {"molecule": "LTFAHYWAQAASAA (not fully specified; N-terminal acetyl; $r8 at 4 crosslinked by all-carbon olefin staple to $ at 11; Cba (cyclobutyl alanine) at 10; C-terminal amide; single isomer iso2, stapled peptidomimetic macrocycle, isomer iso2)", "note": "[SP712, Ac-LTF$r8HYWAQCba$SAA-NH2 (iso2)]", "values": [{"measurement": "Ki", "setting": "MDM2 (In-house, 41 kD) [5]", "result": "≤ 10", "unit": "nM"}, {"measurement": "Ki", "setting": "MDMX (In-house, 40 kD) [6]", "result": "≤ 10", "unit": "nM"}]}, {"molecule": "LTFASYWAQAASAA (not fully specified; N-terminal acetyl; $r8 at 4 crosslinked by all-carbon olefin staple to $ at 11; Cba (cyclobutyl alanine) at 10; C-terminal amide; single isomer iso2, stapled peptidomimetic macrocycle, isomer iso2)", "note": "[SP713, Ac-LTF$r8SYWAQCba$SAA-NH2 (iso2)]", "values": [{"measurement": "Ki", "setting": "MDM2 (In-house, 41 kD) [5]", "result": "≤ 10", "unit": "nM"}, {"measurement": "Ki", "setting": "MDMX (In-house, 40 kD) [6]", "result": "≤ 10", "unit": "nM"}]}, {"molecule": "Ac-LTF[R8]EYWAQ[Cba][S5]AAA-NH2 (staple 4-11; also: single isomer iso2, stapled peptidomimetic macrocycle, isomer iso2)", "note": "[SP716, Ac-LTF$r8EYWAQCba$AAA-NH2 (iso2)]", "values": [{"measurement": "Ki", "setting": "MDM2 (In-house, 41 kD) [5]", "result": "≤ 10", "unit": "nM"}, {"measurement": "Ki", "setting": "MDMX (In-house, 40 kD) [6]", "result": "≤ 10", "unit": "nM"}]}, {"molecule": "ETFAEYWAQAASAA (not fully specified; N-terminal Pam cap (abbreviation not explained in the filing); $r8 = alpha-Me R8-octenyl-alanine and $ = alpha-Me S5-pentenyl-alanine joined by an all-carbon crosslinker; Cba = cyclobutyl alanine; C-terminal amide (NH2), also called Pam-ETF$r8EYWAQCba$SAA-NH2)", "note": "[SP250]", "values": [{"measurement": "Ki", "setting": "MDMX (In-house, 40 kD) [7]", "result": "> 1000", "unit": "nM"}, {"measurement": "IC50", "setting": "MDMX (In-house, 40 kD) [8]", "result": "> 1000", "unit": "nM"}]}, {"molecule": "LTAAEYWAQAASAA (not fully specified; N-terminal acetyl (Ac); $r8 = alpha-Me R8-octenyl-alanine and $ = alpha-Me S5-pentenyl-alanine joined by an all-carbon crosslinker; Cba = cyclobutyl alanine; C-terminal amide (NH2), also called Ac-LTA$r8EYWAQCba$SAA-NH2)", "note": "[SP252]", "values": [{"measurement": "Ki", "setting": "MDMX (In-house, 40 kD) [7]", "result": "> 1000", "unit": "nM"}, {"measurement": "IC50", "setting": "MDMX (In-house, 40 kD) [8]", "result": "> 1000", "unit": "nM"}]}]}
